For experiment [1], the target named is vacant E. coli 70S ribosome (lacking bound mRNA and tRNAs) (E. coli) (UniProt P0AG67). Kind of experiment: co-sedimentation.
Experiment [2] has as its target E. coli RNA polymerase core enzyme (α2ββ′ω) (E. coli) (UniProt P0A7Z4). Briefly: co-sedimentation.

Data on 4 substances can be found in paper PMC5737488.

Several values for one entry are separate records, joined by “and”; a condition that tells them apart may be missing. Equal entries are not always repeated.

“E. coli RNA polymerase core enzyme (α2ββ′ω) (from UniProt P0A7Z4;P0A8V2;P0A8T7;P0A800) (complex)”: in experiment [1], the dissociation constant Kd is 930 nM; the percent bound to the ribosome is 90%; the percent of RNA polymerase co-migrating with ribosomes stood at 80%; the stoichiometry N (RNA polymerase per ribosome) was 2 and 1.
In experiment [1], “transcription elongation complex (core RNA polymerase with a bound DNA:RNA scaffold) (from UniProt P0A7Z4;P0A8V2;P0A8T7;P0A800)” came in with a percent bound to the ribosome of 15%.
For the substance “E. coli RNA polymerase holoenzyme (core enzyme with bound sigma factor σ70) (from UniProt P0A7Z4;P0A8V2;P0A8T7;P0A800;P00579) (complex)”, in experiment [1], the KD (fit assuming only monomeric holoenzyme) is 1200 nM, the Kd came out at 1400 nM and the percent bound to the ribosome was found to be 31%.
For “vacant E. coli 70S ribosome (lacking bound mRNA and tRNAs) (from UniProt P0AG67;P0A7V0;P02358;P02359;P0A7X3;P0A7R9;P0A7L0;P0A7R1;P0A7K2;P0A7K6) (complex)”, in experiment [2], the stoichiometry N (ribosome per RNA polymerase) was 1.

For orientation: Kd means a measure of binding affinity in units of concentration. Low values mean a tighter complex, high ones a looser complex.
